Measurements taken from article PMC9851154.

B1: NOV1 (Novosphingobium aromaticivorans DSM 12444) (protein)
chain: MAQFPNTPSFTGFNTPSRIEADIADLAHEGTIPQGLNGAFYRVQPDPQFPPRLDDDIAFNGDGMITRFHIHDGQVDFRQRWAKTDKWKLENAAGKALFGAYRNPLTDDEAVKGEIRSTANTNAFVFGGKLWAMKEDSPALVMDPATMETFGFEKFGGKMTGQTFTAHPKVDPKTGNMVAIGYAASGLCTDDVTYMEVSPEGELVREVWFKVPYYCMMHDFGITEDYLVLHIVPSIGSWERLEQGKPHFGFDTTMPVHLGIIPRRDGVRQEDIRWFTRDNCFASHVLNAWQEGTKIHFVTCEAKNNMFPFFPDVHGAPFNGMEAMSHPTDWVVDMASNGEDFAGIVKLSDTAAEFPRIDDRFTGQKTRHGWFLEMDMKRPVELRGGSAGGLLMNCLFHKDFETGREQHWWCGPVSSLQEPCFVPRAKDAPEGDGWIVQVCNRLEEQRSDLLIFDALDIEKGPVATVNIPIRLRFGLHGNWANADEIGLAEKVLAA
B2: NOV1 (Novosphingobium aromaticivorans DSM 12444; S283F) (protein)
chain: MAQFPNTPSFTGFNTPSRIEADIADLAHEGTIPQGLNGAFYRVQPDPQFPPRLDDDIAFNGDGMITRFHIHDGQVDFRQRWAKTDKWKLENAAGKALFGAYRNPLTDDEAVKGEIRSTANTNAFVFGGKLWAMKEDSPALVMDPATMETFGFEKFGGKMTGQTFTAHPKVDPKTGNMVAIGYAASGLCTDDVTYMEVSPEGELVREVWFKVPYYCMMHDFGITEDYLVLHIVPSIGSWERLEQGKPHFGFDTTMPVHLGIIPRRDGVRQEDIRWFTRDNCFAFHVLNAWQEGTKIHFVTCEAKNNMFPFFPDVHGAPFNGMEAMSHPTDWVVDMASNGEDFAGIVKLSDTAAEFPRIDDRFTGQKTRHGWFLEMDMKRPVELRGGSAGGLLMNCLFHKDFETGREQHWWCGPVSSLQEPCFVPRAKDAPEGDGWIVQVCNRLEEQRSDLLIFDALDIEKGPVATVNIPIRLRFGLHGNWANADEIGLAEKVLAA

Legend:
[1] = substrate: Oc1ccc(/C=C/c2cc(O)cc(O)c2)cc1; test: purified protein; type: biochemical, Novosphingobium aromaticivorans; settings: apparent, 0.1 M Tris-HCl pH 9, room temperature
[2] = substrate: CC=Cc1ccc(O)c(OC)c1; test: purified protein; type: biochemical, Novosphingobium aromaticivorans; settings: apparent, 0.1 M Tris-HCl pH 9, room temperature

Protein	Km [1]	kcat [1]	kcat/Km [1]	Km [2]	kcat [2]	kcat/Km [2]
B1	60 ± 10 µM	0.38 ± 0.02 s⁻¹	6300 ± 200 M⁻¹ s⁻¹	600 ± 100 µM	7.3 ± 0.2 s⁻¹	12200 ± 2000 M⁻¹ s⁻¹
B2	227 ± 2 µM	0.078 ± 0.004 s⁻¹	340 ± 20 M⁻¹ s⁻¹	800 ± 100 µM	14.5 ± 0.8 s⁻¹	18100 ± 4000 M⁻¹ s⁻¹
